From patent publication US20230220042A1 (SHANGHAI JIAO TONG UNIVERSITY SCHOOL OF MEDICINE, published 2023)

Each binder was assayed against T1, Biotin-FcγRIIB (human FcγRIIB, Sino Biological) (human, UniProt P31994 43-217, limits assumed, biotin-labeled) (assay: NGS after FACS sort of 3T3-displayed Library4 for biotin-FcγRIIB binding).
T1 construct: Used at 1 µg/ml with Streptavidin-APC for flow cytometry and sorting; also called CD32b
T1 sequence (looked up): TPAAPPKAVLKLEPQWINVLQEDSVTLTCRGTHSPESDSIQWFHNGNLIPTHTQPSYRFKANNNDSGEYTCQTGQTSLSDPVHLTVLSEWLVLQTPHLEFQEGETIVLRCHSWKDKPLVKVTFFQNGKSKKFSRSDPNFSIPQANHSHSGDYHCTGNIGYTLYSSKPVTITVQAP

Binder	Enrichment factor (percentage after sorting/percentage before sorting)	Increased factor (enrichment factor/wild-type enrichment factor)
human IgG2 anti-mouse CD40 surface displayed antibody, G327A (antibody, name in EU numbering, m1 with this Fc mutation (Eu numbering); copies: 2 + 2) light chain (with the P2A rest): DTVLTQSPALAVSPGERVTISCRASDSVSTLMHWYQQKPGQQPKLLIYLASHLESGVPARFSGSGSGTDFTLTIDPVEADDTATYYCQQSWNDPWTFGGGTKLELKRTVAAPSVFIFPPSDEQLKSGTASVVCLLNNFYPREAKVQWKVDNALQSGNSQESVTEQDSKDSTYSLSSTLTLSKADYEKHKVYACEVTHQGLSSPVTKSFNRGECGSGATNFSLLKQAGDVEENPG heavy chain: EVQLVESDGGLVQPGRSLKLPCAASGFTFSDYYMAWVRQAPTKGLEWVASISYDGSSTYYRDSVKGRFTISRDNAKSTLYLQMDSLRSEDTATYYCGRHSSYFDYWGQGVMVTVSSASTKGPSVFPLAPCSRSTSESTAALGCLVKDYFPEPVTVSWNSGALTSGVHTFPAVLQSSGLYSLSSVVTVPSSNFGTQTYTCNVDHKPSNTKVDKTVERKCCVECPPCPAPPVAGPSVFLFPPKPKDTLMISRTPEVTCVVVDVSHEDPEVQFNWYVDGVEVHNAKTKPREEQFNSTFRVVSVLTVVHQDWLNGKEYKCKVSNKALPAPIEKTISKTKGQPREPQVYTLPPSREEMTKNQVSLTCLVKGFYPSDIAVEWESNGQPENNYKTTPPMLDSDGSFFLYSKLTVDKSRWQQGNVFSCSVMHEALHNHYTQKSLSLSPGKLEPPPSTVSNMATVAVLVVLGAAIVTGAVVAFVMKMRRRNTGGKGGDYALAPGSQTSDLSLPDCKVMVHDPHSLA	5.05	3.38
human IgG2 anti-mouse CD40 surface displayed antibody, G327A/A330V (antibody, name in EU numbering, m1 with these Fc mutations (Eu numbering); copies: 2 + 2) light chain (with the P2A rest): DTVLTQSPALAVSPGERVTISCRASDSVSTLMHWYQQKPGQQPKLLIYLASHLESGVPARFSGSGSGTDFTLTIDPVEADDTATYYCQQSWNDPWTFGGGTKLELKRTVAAPSVFIFPPSDEQLKSGTASVVCLLNNFYPREAKVQWKVDNALQSGNSQESVTEQDSKDSTYSLSSTLTLSKADYEKHKVYACEVTHQGLSSPVTKSFNRGECGSGATNFSLLKQAGDVEENPG heavy chain: EVQLVESDGGLVQPGRSLKLPCAASGFTFSDYYMAWVRQAPTKGLEWVASISYDGSSTYYRDSVKGRFTISRDNAKSTLYLQMDSLRSEDTATYYCGRHSSYFDYWGQGVMVTVSSASTKGPSVFPLAPCSRSTSESTAALGCLVKDYFPEPVTVSWNSGALTSGVHTFPAVLQSSGLYSLSSVVTVPSSNFGTQTYTCNVDHKPSNTKVDKTVERKCCVECPPCPAPPVAGPSVFLFPPKPKDTLMISRTPEVTCVVVDVSHEDPEVQFNWYVDGVEVHNAKTKPREEQFNSTFRVVSVLTVVHQDWLNGKEYKCKVSNKALPVPIEKTISKTKGQPREPQVYTLPPSREEMTKNQVSLTCLVKGFYPSDIAVEWESNGQPENNYKTTPPMLDSDGSFFLYSKLTVDKSRWQQGNVFSCSVMHEALHNHYTQKSLSLSPGKLEPPPSTVSNMATVAVLVVLGAAIVTGAVVAFVMKMRRRNTGGKGGDYALAPGSQTSDLSLPDCKVMVHDPHSLA	6.98	4.67
human IgG2 anti-mouse CD40 surface displayed antibody, G327A/A330R (antibody, name in EU numbering, m1 with these Fc mutations (Eu numbering); copies: 2 + 2) light chain (with the P2A rest): DTVLTQSPALAVSPGERVTISCRASDSVSTLMHWYQQKPGQQPKLLIYLASHLESGVPARFSGSGSGTDFTLTIDPVEADDTATYYCQQSWNDPWTFGGGTKLELKRTVAAPSVFIFPPSDEQLKSGTASVVCLLNNFYPREAKVQWKVDNALQSGNSQESVTEQDSKDSTYSLSSTLTLSKADYEKHKVYACEVTHQGLSSPVTKSFNRGECGSGATNFSLLKQAGDVEENPG heavy chain: EVQLVESDGGLVQPGRSLKLPCAASGFTFSDYYMAWVRQAPTKGLEWVASISYDGSSTYYRDSVKGRFTISRDNAKSTLYLQMDSLRSEDTATYYCGRHSSYFDYWGQGVMVTVSSASTKGPSVFPLAPCSRSTSESTAALGCLVKDYFPEPVTVSWNSGALTSGVHTFPAVLQSSGLYSLSSVVTVPSSNFGTQTYTCNVDHKPSNTKVDKTVERKCCVECPPCPAPPVAGPSVFLFPPKPKDTLMISRTPEVTCVVVDVSHEDPEVQFNWYVDGVEVHNAKTKPREEQFNSTFRVVSVLTVVHQDWLNGKEYKCKVSNKALPRPIEKTISKTKGQPREPQVYTLPPSREEMTKNQVSLTCLVKGFYPSDIAVEWESNGQPENNYKTTPPMLDSDGSFFLYSKLTVDKSRWQQGNVFSCSVMHEALHNHYTQKSLSLSPGKLEPPPSTVSNMATVAVLVVLGAAIVTGAVVAFVMKMRRRNTGGKGGDYALAPGSQTSDLSLPDCKVMVHDPHSLA	98.3	65.8
human IgG2 anti-mouse CD40 surface displayed antibody, G327A/I332C (antibody, name in EU numbering, m1 with these Fc mutations (Eu numbering); copies: 2 + 2) light chain (with the P2A rest): DTVLTQSPALAVSPGERVTISCRASDSVSTLMHWYQQKPGQQPKLLIYLASHLESGVPARFSGSGSGTDFTLTIDPVEADDTATYYCQQSWNDPWTFGGGTKLELKRTVAAPSVFIFPPSDEQLKSGTASVVCLLNNFYPREAKVQWKVDNALQSGNSQESVTEQDSKDSTYSLSSTLTLSKADYEKHKVYACEVTHQGLSSPVTKSFNRGECGSGATNFSLLKQAGDVEENPG heavy chain: EVQLVESDGGLVQPGRSLKLPCAASGFTFSDYYMAWVRQAPTKGLEWVASISYDGSSTYYRDSVKGRFTISRDNAKSTLYLQMDSLRSEDTATYYCGRHSSYFDYWGQGVMVTVSSASTKGPSVFPLAPCSRSTSESTAALGCLVKDYFPEPVTVSWNSGALTSGVHTFPAVLQSSGLYSLSSVVTVPSSNFGTQTYTCNVDHKPSNTKVDKTVERKCCVECPPCPAPPVAGPSVFLFPPKPKDTLMISRTPEVTCVVVDVSHEDPEVQFNWYVDGVEVHNAKTKPREEQFNSTFRVVSVLTVVHQDWLNGKEYKCKVSNKALPAPCEKTISKTKGQPREPQVYTLPPSREEMTKNQVSLTCLVKGFYPSDIAVEWESNGQPENNYKTTPPMLDSDGSFFLYSKLTVDKSRWQQGNVFSCSVMHEALHNHYTQKSLSLSPGKLEPPPSTVSNMATVAVLVVLGAAIVTGAVVAFVMKMRRRNTGGKGGDYALAPGSQTSDLSLPDCKVMVHDPHSLA	11.4	7.64
human IgG2 anti-mouse CD40 surface displayed antibody, G327A/I332A (antibody, name in EU numbering, m1 with these Fc mutations (Eu numbering); copies: 2 + 2) light chain (with the P2A rest): DTVLTQSPALAVSPGERVTISCRASDSVSTLMHWYQQKPGQQPKLLIYLASHLESGVPARFSGSGSGTDFTLTIDPVEADDTATYYCQQSWNDPWTFGGGTKLELKRTVAAPSVFIFPPSDEQLKSGTASVVCLLNNFYPREAKVQWKVDNALQSGNSQESVTEQDSKDSTYSLSSTLTLSKADYEKHKVYACEVTHQGLSSPVTKSFNRGECGSGATNFSLLKQAGDVEENPG heavy chain: EVQLVESDGGLVQPGRSLKLPCAASGFTFSDYYMAWVRQAPTKGLEWVASISYDGSSTYYRDSVKGRFTISRDNAKSTLYLQMDSLRSEDTATYYCGRHSSYFDYWGQGVMVTVSSASTKGPSVFPLAPCSRSTSESTAALGCLVKDYFPEPVTVSWNSGALTSGVHTFPAVLQSSGLYSLSSVVTVPSSNFGTQTYTCNVDHKPSNTKVDKTVERKCCVECPPCPAPPVAGPSVFLFPPKPKDTLMISRTPEVTCVVVDVSHEDPEVQFNWYVDGVEVHNAKTKPREEQFNSTFRVVSVLTVVHQDWLNGKEYKCKVSNKALPAPAEKTISKTKGQPREPQVYTLPPSREEMTKNQVSLTCLVKGFYPSDIAVEWESNGQPENNYKTTPPMLDSDGSFFLYSKLTVDKSRWQQGNVFSCSVMHEALHNHYTQKSLSLSPGKLEPPPSTVSNMATVAVLVVLGAAIVTGAVVAFVMKMRRRNTGGKGGDYALAPGSQTSDLSLPDCKVMVHDPHSLA	29.2	19.5
human IgG2 anti-mouse CD40 surface displayed antibody, L328E/I332T (antibody, name in EU numbering, m1 with these Fc mutations (Eu numbering); copies: 2 + 2) light chain (with the P2A rest): DTVLTQSPALAVSPGERVTISCRASDSVSTLMHWYQQKPGQQPKLLIYLASHLESGVPARFSGSGSGTDFTLTIDPVEADDTATYYCQQSWNDPWTFGGGTKLELKRTVAAPSVFIFPPSDEQLKSGTASVVCLLNNFYPREAKVQWKVDNALQSGNSQESVTEQDSKDSTYSLSSTLTLSKADYEKHKVYACEVTHQGLSSPVTKSFNRGECGSGATNFSLLKQAGDVEENPG heavy chain: EVQLVESDGGLVQPGRSLKLPCAASGFTFSDYYMAWVRQAPTKGLEWVASISYDGSSTYYRDSVKGRFTISRDNAKSTLYLQMDSLRSEDTATYYCGRHSSYFDYWGQGVMVTVSSASTKGPSVFPLAPCSRSTSESTAALGCLVKDYFPEPVTVSWNSGALTSGVHTFPAVLQSSGLYSLSSVVTVPSSNFGTQTYTCNVDHKPSNTKVDKTVERKCCVECPPCPAPPVAGPSVFLFPPKPKDTLMISRTPEVTCVVVDVSHEDPEVQFNWYVDGVEVHNAKTKPREEQFNSTFRVVSVLTVVHQDWLNGKEYKCKVSNKGEPAPTEKTISKTKGQPREPQVYTLPPSREEMTKNQVSLTCLVKGFYPSDIAVEWESNGQPENNYKTTPPMLDSDGSFFLYSKLTVDKSRWQQGNVFSCSVMHEALHNHYTQKSLSLSPGKLEPPPSTVSNMATVAVLVVLGAAIVTGAVVAFVMKMRRRNTGGKGGDYALAPGSQTSDLSLPDCKVMVHDPHSLA	55.1	36.9
human IgG2 anti-mouse CD40 surface displayed antibody, G327A/I332E (antibody, name in EU numbering, m1 with these Fc mutations (Eu numbering); copies: 2 + 2) light chain (with the P2A rest): DTVLTQSPALAVSPGERVTISCRASDSVSTLMHWYQQKPGQQPKLLIYLASHLESGVPARFSGSGSGTDFTLTIDPVEADDTATYYCQQSWNDPWTFGGGTKLELKRTVAAPSVFIFPPSDEQLKSGTASVVCLLNNFYPREAKVQWKVDNALQSGNSQESVTEQDSKDSTYSLSSTLTLSKADYEKHKVYACEVTHQGLSSPVTKSFNRGECGSGATNFSLLKQAGDVEENPG heavy chain: EVQLVESDGGLVQPGRSLKLPCAASGFTFSDYYMAWVRQAPTKGLEWVASISYDGSSTYYRDSVKGRFTISRDNAKSTLYLQMDSLRSEDTATYYCGRHSSYFDYWGQGVMVTVSSASTKGPSVFPLAPCSRSTSESTAALGCLVKDYFPEPVTVSWNSGALTSGVHTFPAVLQSSGLYSLSSVVTVPSSNFGTQTYTCNVDHKPSNTKVDKTVERKCCVECPPCPAPPVAGPSVFLFPPKPKDTLMISRTPEVTCVVVDVSHEDPEVQFNWYVDGVEVHNAKTKPREEQFNSTFRVVSVLTVVHQDWLNGKEYKCKVSNKALPAPEEKTISKTKGQPREPQVYTLPPSREEMTKNQVSLTCLVKGFYPSDIAVEWESNGQPENNYKTTPPMLDSDGSFFLYSKLTVDKSRWQQGNVFSCSVMHEALHNHYTQKSLSLSPGKLEPPPSTVSNMATVAVLVVLGAAIVTGAVVAFVMKMRRRNTGGKGGDYALAPGSQTSDLSLPDCKVMVHDPHSLA	126	84.1
